In US20140348834A1 (published 2014):
Changes are numbered by the printed parent chain.

T1: rat IL-17A (rat, UniProt Q61453 18-150, limits assumed)
T1 construct: Purified recombinant protein in SPR
T1 sequence (looked up): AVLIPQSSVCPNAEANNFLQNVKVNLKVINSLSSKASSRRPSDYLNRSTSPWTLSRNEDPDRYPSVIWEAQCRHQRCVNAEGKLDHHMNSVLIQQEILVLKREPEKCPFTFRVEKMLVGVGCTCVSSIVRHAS

T2: mouse IL-17A (mouse, UniProt Q62386 26-158, limits assumed)
T2 construct: Purified recombinant protein in SPR; also called MuIL-17A; murine IL-17A
T2 sequence (looked up): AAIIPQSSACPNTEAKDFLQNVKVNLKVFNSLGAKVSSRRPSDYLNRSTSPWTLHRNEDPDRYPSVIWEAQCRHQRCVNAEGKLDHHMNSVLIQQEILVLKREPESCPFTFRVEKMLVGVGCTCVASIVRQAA

B1: IL17-h10F7.4 (antibody, V domains shown)
VH: QVQLQQSGAELVRPGTSVTLSCKASGYIFTDYEIHWVKQTPVHGLEWIGVNDPESGGTFYNQKFDGKAELTADKSSSTAYMELRSLTSEDSGVYYCTRYYRYESFYGMDYWGQGTSITVSS
VL: DIQLTQSPSSLSASVGDRVTITCSASSSISYIYWFQQKPGKSPKRWIYATFELASGVPSRFSGSGSGTDYTLTISSLQPEDFATYYCHQRSSYPWTFGQGTKLEIKR
notes: IgG; constant regions not specified
B2: IL17-h10F7.9 (antibody, V domains shown)
VH: B1 VH
VL: EIVLTQSPDFQSVTPKEKVTITCSASSSISYIYWFQQKPDQSPKRWIYATFELASGVPSRFSGSGSGTDYTLTINSLEAEDAATYYCHQRSSYPWTFGQGTKLEIKR
notes: as for B1
B3: IL17-h5C5.2 (antibody, V domains shown)
VH: EVQLVQSGAEVKKPGASVKVSCKASGYTFTDYEFHWVRQAPGQGLEWMGVIHPGNGGTAYNQNFRDRVTITADKSTSTAYMELSSLRSEDTAVYYCARFLTYEGYFDYWGQGTLVTVSS
VL: NIVMTQTPKFLLVSPGDRVTITCKASQSVSIDVGWFQQKPGQSPKLLIYHASNRYTGVPDRFTGSGYGTDFTFTVNTVQAEDLAVYFCQQDYSSPYTFGGGTKLELKR
notes: as for B1
B4: IL17-h5C5.11 (antibody, V domains shown)
VH: B3 VH
VL: EIVMTQSPATLSVSPGERATLSCKASQSVSIDVGWYQQKPGQAPRLLIYHASNRYTGIPARFSGSGSGTDFTLTISSLQPEDFAVYYCQQDYSSPYTFGQGTKLEIKR
notes: as for B1
B5: IL17-h5C5.20 (antibody, V domains shown)
VH: B3 VH
VL: B4 VL with E1N, Y36F, A43S, I58V, Y87F
notes: as for B1
B6: IL17-h5C5.15 (antibody, V domains shown)
VH: B3 VH with M48I, V68A, I70L, A97T
VL: B4 VL with Y36F, A43S, I58V, Y87F
notes: IgG; constant regions not specified; also called h5C5.15 (VH.1b-Vk.3a)
B7: IL17-h5C5.14 (antibody, V domains shown)
VH: B3 VH
VL: B4 VL with Y36F, A43S, I58V, Y87F
notes: IgG; constant regions not specified; also called h5C5.14 (VH.1-Vk.3a)
B8: IL17-h5C5.21 (antibody, V domains shown)
VH: B3 VH with M48I, V68A, I70L, A97T
VL: B4 VL with E1N, Y36F, A43S, I58V, Y87F
notes: IgG; constant regions not specified; also called h5C5.21 (VH.1b-Vk.3c)
B9: IL17-h5C5.19 (antibody, V domains shown)
VH: QVQLQQSGAELVRPGASVKLSCKALGYTFTDYEFHWVKQTPVHGLEWIGVIHPGNGGTAYNQNFRDKATLTADKSSSTAYMELSSLTSEDSGVYYCTRFLTYEGYFDYWGQGTALTVSS
VL: B4 VL with E1N, Y36F, A43S, I58V, Y87F
notes: as for B1
B10: IL17-G9-1 (antibody, V domains shown)
VH: EVQLLESGGGVVQPGRSLRLSCAASGFIFSNYGMHWVRQAPGKGLEWVAVISYDGSNKYYADSVKGRFTISRDNSKNTLYLEMNSLRPEDTAVYYCAKVGASGDYYYSYGLDVWGQGTTVTVSS
VL: QSVLTQPPSASGTPGQTVSISCSGSHSNIGRHPVDWYQQVPGAAPKLLMYYGGYRPSGVPDRFSGSQSGTSASLAISGLQSEDEADYYCATWDDRLVGYVFGSGTKVTVLG
B11: IL17-G9-2 (antibody, V domains shown)
VH: B10 VH with S30R
VL: B10 VL with H26N, M49I, G52D, G53D, Y54Q, R95S, V97G
B12: IL17-G9-4 (antibody, V domains shown)
VH: B10 VH
VL: B10 VL with S25R, H26Q, P33Y, G52D, G53S, Y54I, R95S, V97G
notes: no own VH entry is printed
B13: IL17-G9-M2 (antibody, V domains shown)
VH: B10 VH
VL: QSVLTQPPSASGTPGQTVSISCSGHNSNIGYHYVHWYQQVPGAAPKLLIYGDGWRPSGVPDRFSGSQSGTSASLAISGLQSEDEADYYCGTWDDWLGGYVFGTGTKVTVLG
B14: ML109-1D8 (antibody, V domains shown)
VH: B9 VH with L25S, T30S, F34M, N63K, S77T, G92A, T97I, A114T
VL: SIVMTQTPKFLLVSAGDRVTITCKASQSVNNDVAWFQHKPGQSPKLLINYASNRYTGVPDRFTGSGYGTDFTFTISTVQSEDLAIYFCQQDYGSPYTFGGGTTLEIKR
B15: ML109-10G9 (antibody, V domains shown)
VH: QVQLKESGPALVAPSQSLSFTCTISGFSLSSYGVHWVRQPPGKGLEWLVVIWSDGTTTYNSALKSRLSISKDNSKSQVFLKMNSLQTDDTAMYYCARDGYYIYTMDYWGQGTSVTVSS
VL: DVVMTQTPLSLPVSLGDQASISCRSSQSLVHSNGNTYLHWYLQRPGQSPKLLIYKVSNRFSGVPDRFSGSGSGTDFTLKISRVEAEDLGLYFCSQGTHAPLTFGAGTKLELNR
B16: B6-44 (antibody, V domains shown)
VH: EVQLVQSGAEVKKPGSSVKVSCKASGGSFLSYGFSWVRQAPGQGLEWMGGITPFFGLADYAQKFQGRVTITADESTTTAYMELSGLTSDDTAVYYCARESSEFWNGYYCTQDFDLWGQGTTVTVSS
VL: EIVLTQSPDFQSVTPKEKVTITCRASQDIGSDLHWYQQKPDQSPKLLIKYASNSISGVPSRFSGSGSGTDFTLTINGLEAEDAGTYYCHQTAYLPQTFGPGTKVDIK

molecular target: T3, human IL-17A (human, UniProt Q16552 24-155); assay: cell-based or functional assay
T3 sequence (Q16552 24-155): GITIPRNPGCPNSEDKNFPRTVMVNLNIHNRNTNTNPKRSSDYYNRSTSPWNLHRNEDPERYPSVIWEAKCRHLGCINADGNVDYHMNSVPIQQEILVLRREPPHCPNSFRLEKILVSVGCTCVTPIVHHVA

Binder | Potency (pM), IL-17-driven IL-6 production in HS27 cells [pM]
B1 | 117
B2 | 293

molecular target: T3, human IL-17A; assay: hIL17A ELISA
Protocol: The following protocol is used to characterize the binding of IL-17 antibodies to human IL-17 by enzyme-linked immunosorbent assay (ELISA). […] Coat ELISA plate with 50 μl per well of Goat anti Mouse IgG-Fc at 2 ug/ml, overnight at 4° C. […] Wash plate 3×PBS/Tween. […] Add 50 μl Mab diluted to 1 μg/ml in PBS/0.1% BSA to appropriate wells. Incubate 1 hr at room temperature (RT). […] Wash plate 3× with PBS/Tween. […] Add 50 μl of serial diluted biotin-IL17 (human IL-17, IL-17A/F, cyno IL-17) to appropriate wells. Incubate 1 hr at room temperature (RT). […] Wash plate 3× with PBS/Tween. […] Incubate 1 hr at RT. […] Wash plate 3× with PBS/Tween. […] Stop reaction with 50 μl 2N H₂SO₄. […] Read absorbance at 450 nm.

Binder | EC50 [pM]
B1 | 40
B2 | 40
B3 | 1200
B4 | 30
B5 | 30
B6 | 20
B7 | 30
B8 | 30
B9 | 30

molecular target: T1, rat IL-17A; assay: SPR (Biacore 3000), antibody captured by anti-Fc, antigen in solution;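 note: purified recombinant IL-17 antigens flowed over captured antibodies in HBS-EP buffer, global Langmuir one-to-one fit of association and dissociation phases, KD derived from koff over kon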
Protocol: (§1) The binding of antibodies to purified recombinant human, cyno, rat, mouse, rabbit IL-17 and human IL-17A/F were determined by surface plasmon resonance-based measurements with a Biacore® 3000 instrument (Biacore® AB, Uppsala, Sweden) using running HBS-EP (10 mM HEPES [pH 7.4], 150 mM NaCl, 3 mM EDTA, and 0.005% surfactant P20) at 25° C. […] Approximately 5000 RU of goat anti-mouse or anti-human IgG (Fcγ) fragment specific polyclonal antibody (Pierce Biotechnology Inc, Rockford, Ill.) diluted in 10 mM sodium acetate (pH 4.5) was directly immobilized across a CM5 research grade biosensor chip using a standard amine coupling kit according to manufacturer's instructions and procedures at 25 μg/ml. Unreacted moieties on the biosensor surface were blocked with ethanolamine. Modified carboxymethyl dextran surface in flowcell 2 and 4 was used as a reaction surface. Unmodified carboxymethyl dextran without goat anti-mouse or anti-human IgG in flow cell 1 and 3 was used as the reference surface. For kinetic analysis, rate equations derived from the 1:1 Langmuir binding model were fitted simultaneously to association and dissociation phases of all eight injections (using global fit analysis) with the use of Biaevaluation 4.0.1 software. Purified antibodies were diluted in HEPES-buffered saline for capture across goat anti-mouse or anti-human IgG specific reaction surfaces. Antibodies to be captured as a ligand (25 μg/ml) were injected over reaction matrices at a flow rate of 5 μl/min. The association and dissociation rate constants, kon (unit M-1s-1) and koff (unit s-1) were determined under a continuous flow rate of 25 μl/min. Rate constants were derived by making kinetic binding measurements at ten different antigen concentrations ranging from 10 nM to 200 nM. The equilibrium dissociation constant (unit M) of the reaction between antibodies and recombinant purified IL-17 antigens was then calculated from the kinetic rate constants by the following formula: KD=koff/kon. Binding was recorded as a function of time and kinetic rate constants are calculated. In this assay, on-rates as fast as 10⁶ M⁻¹ s⁻¹ and off-rates as slow as 10⁻⁶ s⁻¹ can be measured.

Binder | Kd [pM] | koff [s⁻¹] | kon [M⁻¹ s⁻¹]
B6 | 5800 | 0.0036 | 621000
B7 | 5560 | 0.00398 | 716000
B8 | 5970 | 0.0024 | 402000

molecular target: T3, human IL-17A; assay: as above
Protocol: as §1

Binder | Kd [pM] | koff [s⁻¹] | kon [M⁻¹ s⁻¹]
B6 | 458 | 0.000437 | 954000
B7 | 363 | 0.000472 | 1.3e+06
B8 | 729 | 0.000395 | 542000

molecular target: T4, human IL-17A/F (human, UniProt Q16552 24-155; Q96PD4 31-163); assay: as above
T4 construct: Recombinant; biotinylated in the ELISA; also called hIL-17A/F; HuIL-17A/F
T4 sequence (Q16552 24-155, chain 1 of 2): as the sequence (Q16552 24-155) above
T4 sequence (Q96PD4 31-163, chain 2 of 2): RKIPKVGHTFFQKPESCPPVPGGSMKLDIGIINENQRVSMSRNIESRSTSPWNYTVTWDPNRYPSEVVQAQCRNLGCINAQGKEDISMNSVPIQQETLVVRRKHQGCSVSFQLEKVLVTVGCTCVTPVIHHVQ
Protocol: as §1

Binder | Kd [pM] | koff [s⁻¹] | kon [M⁻¹ s⁻¹]
B6 | 1430 | 0.00112 | 781000
B7 | 1110 | 0.00119 | 1.07e+06
B8 | 1390 | 0.00111 | 801000

molecular target: T2, mouse IL-17A; assay: as above
Protocol: as §1

Binder | Kd [pM] | koff [s⁻¹] | kon [M⁻¹ s⁻¹]
B6 | 2830 | 0.000557 | 197000
B7 | 1860 | 0.000494 | 266000
B8 | 3060 | 0.000524 | 171000

molecular target: T5, cynomolgus monkey IL-17A (cynomolgus monkey, UniProt A0A2K5TTB0 24-155); assay: as above
T5 construct: biotinylated in the ELISA; also called cyno IL-17; Cyno IL-17A
T5 sequence (A0A2K5TTB0 entry or part of it): as the sequence (Q16552 24-155) above, with T3A, P8S, N34S, I77V, N78K, P104R counted along it
Protocol: as §1

Binder | Kd [pM] | koff [s⁻¹] | kon [M⁻¹ s⁻¹]
B6 | 358 | 0.000216 | 603000
B7 | 245 | 0.000229 | 934000
B8 | 406 | 0.00024 | 591000

molecular target: T6, human IL-17A (human, UniProt Q16552 24-155); assay: ELISA, captured antibody, serially diluted biotin-IL-17 (Example 1.5.1)
T6 construct: Biotinylated in the ELISA; also called hIL-17; Hu IL-17A
T6 sequence (Q16552 24-155 limits assumed): as the sequence (Q16552 24-155) above
Protocol: The following protocol is used to characterize the binding of IL-17 antibodies to human IL-17 by enzyme-linked immunosorbent assay (ELISA). […] 1. Coat ELISA plate with 50 μl per well of Goat anti Mouse IgG-Fc at 2 ug/ml, overnight at 4° C. […] 2. Wash plate 3×PBS/Tween. […] 3. Add 50 μl Mab diluted to 1 μg/ml in PBS/0.1% BSA to appropriate wells. Incubate 1 hr at room temperature (RT). […] 4. Wash plate 3× with PBS/Tween. […] 5. Add 50 μl of serial diluted biotin-IL17 (human IL-17, IL-17A/F, cyno IL-17) to appropriate wells. Incubate 1 hr at room temperature (RT). […] 6. Wash plate 3× with PBS/Tween. […] 7. […] Incubate 1 hr at RT. […] 8. Wash plate 3× with PBS/Tween. […] 9. […] 10. Stop reaction with 50 μl 2N H₂SO₄. […] Read absorbance at 450 nm.

Binder | EC50 [pM]
B10 | 130
B11 | 180
B12 | 60
B13 | 80

molecular target: T3, human IL-17A; assay: cell-based or functional assay; remark: another data set of the same source

Binder | Potency (pM), IL-17-driven IL-6 production in HS27 cells [pM]
B14 | 62
B15 | 131

molecular target: T3, human IL-17A; assay: cell-based or functional assay; remark: another data set of the same source

Binder | Potency (pM), IL-17-driven IL-6 production in HS27 cells [pM]
B3 | 6
B4 | 115
B5 | 12
B6 | 13
B7 | 18
B8 | 9
B9 | 11

molecular target: T5, cynomolgus monkey IL-17A; assay: cell-based or functional assay

Binder | Potency (pM), IL-17-driven IL-6 production in HS27 cells [pM]
B3 | 11
B4 | 90
B5 | 13
B6 | 12
B7 | 16
B8 | 9
B9 | 9

molecular target: T6, human IL-17A; assay: cell-based or functional assay

Binder | Potency (pM), IL-17-driven IL-6 production in HS27 cells [pM]
B10 | 27
B11 | 24
B12 | 38
B13 | 38
B16 | 120

molecular target: human IL-17A/F (human, UniProt Q16552 24-155; Q96PD4 31-163); assay: cell-based or functional assay
Target sequence in this assay (Q16552 24-155 limits assumed, chain 1 of 2): as the sequence (Q16552 24-155) above
Target sequence in this assay (Q96PD4 31-163 limits assumed, chain 2 of 2): as the sequence (Q96PD4 31-163, chain 2 of 2) above

Binder | Potency (pM), IL-17-driven IL-6 production in HS27 cells [pM]
B10 | 99
B11 | 147
B12 | 119
B13 | 44
B16 | 288

molecular target: cynomolgous monkey (cyno) IL-17A (cynomolgus monkey, UniProt A0A2K5TTB0 24-155); assay: cell-based or functional assay
Sequence (A0A2K5TTB0 entry or part of it): as the sequence (Q16552 24-155) above, with T3A, P8S, N34S, I77V, N78K, P104R counted along it

Binder | Potency (pM), IL-17-driven IL-6 production in HS27 cells [pM]
B10 | 604
B11 | 157
B12 | 247
B13 | 105
B16 | 65
